Drawing on PMC8639777 (Nature, 2021), this text covers Kd for three molecules.

Assay in all cases: BLI
In assay [1] the target is human ALK glycine-rich domain (GRD), residues 678-1030, wild type (human, UniProt Q9UM73 678-1030).
For assay [2], the target named is human ALK GRD (678-1030) E974R (human, UniProt Q9UM73 678-1030, E974R).
For assay [3], the target named is human ALK GRD (678-1030) E978R (human, UniProt Q9UM73 678-1030, E978R).
Assay [4] addresses human ALK GRD (678-1030) Y966R (human, UniProt Q9UM73 678-1030, Y966R).

human ALK glycine-rich domain (GRD), residues 678-1030, wild type, sequence (Q9UM73 678-1030): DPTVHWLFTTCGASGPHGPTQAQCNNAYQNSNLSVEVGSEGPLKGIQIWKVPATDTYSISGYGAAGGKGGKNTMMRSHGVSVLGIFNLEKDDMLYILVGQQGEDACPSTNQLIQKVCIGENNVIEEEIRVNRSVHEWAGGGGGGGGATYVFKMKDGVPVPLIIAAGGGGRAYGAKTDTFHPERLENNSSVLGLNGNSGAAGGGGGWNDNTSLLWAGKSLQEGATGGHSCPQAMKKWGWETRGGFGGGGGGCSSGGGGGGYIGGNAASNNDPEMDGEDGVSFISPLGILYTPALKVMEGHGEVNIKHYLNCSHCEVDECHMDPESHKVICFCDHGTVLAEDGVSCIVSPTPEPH
human ALK GRD (678-1030) E974R, sequence (Q9UM73 678-1030 E974R): as the sequence (Q9UM73 678-1030) above, with E297R counted along it
human ALK GRD (678-1030) Y966R, sequence (Q9UM73 678-1030 Y966R): as the sequence (Q9UM73 678-1030) above, with Y289R counted along it
human ALK GRD (678-1030) E978R, sequence (Q9UM73 678-1030 E978R): as the sequence (Q9UM73 678-1030) above, with E301R counted along it

B1: human ALKAL2 ALKAL domain (ALKAL2-AD), residues 71-152, wild type (ligand, UniProt Q6UX46 71-152, looked up)
chain: AEAAGLGPSPEQRVEIVPRDLRMKDKFLKHLTGPLYFSPKCSKHFHRLYHNTRDCTIPAYYKRCARLLTRLAVSPVCMEDKQ
Regarding B1, the equilibrium dissociation constant (Kd) is 0.329 µM in assay [1], 1.41 µM in assay [2], 6.11 µM in assay [3] and 5.12 µM in assay [4].

B2: human ALKAL2-AD (71-152) R123E (ligand, UniProt Q6UX46 71-152, looked up)
chain: AEAAGLGPSPEQRVEIVPRDLRMKDKFLKHLTGPLYFSPKCSKHFHRLYHNTEDCTIPAYYKRCARLLTRLAVSPVCMEDKQ
In assay [1], B2 returned a Kd of 0.391 µM.

B3: human ALKAL2-AD (71-152) R140E (ligand, UniProt Q6UX46 71-152, looked up)
chain: AEAAGLGPSPEQRVEIVPRDLRMKDKFLKHLTGPLYFSPKCSKHFHRLYHNTRDCTIPAYYKRCARLLTELAVSPVCMEDKQ
With B3, the Kd in assay [1] came out at 2.95 µM. This Kd is about 7.5-fold higher than that of the molecule before.

The term Kd denotes the concentration at which binding is half-saturated. A low value points to higher affinity.
